Measured values: patent publication US20230272055A1 (Incyte, published 2023)

T1: human Type 1 mutCALR on Ba/F3 cells expressing MPL and Type 1 mutCALR (human)
T1 chain: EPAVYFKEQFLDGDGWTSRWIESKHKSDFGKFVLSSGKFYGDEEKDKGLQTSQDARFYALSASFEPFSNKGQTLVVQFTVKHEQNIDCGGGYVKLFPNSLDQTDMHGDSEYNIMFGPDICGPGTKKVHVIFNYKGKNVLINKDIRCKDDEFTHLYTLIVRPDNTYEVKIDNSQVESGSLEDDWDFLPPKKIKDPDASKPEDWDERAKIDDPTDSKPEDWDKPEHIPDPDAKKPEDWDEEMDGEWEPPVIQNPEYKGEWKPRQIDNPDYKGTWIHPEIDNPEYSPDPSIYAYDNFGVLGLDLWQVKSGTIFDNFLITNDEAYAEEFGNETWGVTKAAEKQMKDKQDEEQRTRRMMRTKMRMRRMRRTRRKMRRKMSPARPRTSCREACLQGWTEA

T2: human mutCALR on BaF3 cells stably expressing human MPL and human mutCALR (MPL-mutCALR cells) (human)
T2 construct: also called mutant calreticulin
T2 chain: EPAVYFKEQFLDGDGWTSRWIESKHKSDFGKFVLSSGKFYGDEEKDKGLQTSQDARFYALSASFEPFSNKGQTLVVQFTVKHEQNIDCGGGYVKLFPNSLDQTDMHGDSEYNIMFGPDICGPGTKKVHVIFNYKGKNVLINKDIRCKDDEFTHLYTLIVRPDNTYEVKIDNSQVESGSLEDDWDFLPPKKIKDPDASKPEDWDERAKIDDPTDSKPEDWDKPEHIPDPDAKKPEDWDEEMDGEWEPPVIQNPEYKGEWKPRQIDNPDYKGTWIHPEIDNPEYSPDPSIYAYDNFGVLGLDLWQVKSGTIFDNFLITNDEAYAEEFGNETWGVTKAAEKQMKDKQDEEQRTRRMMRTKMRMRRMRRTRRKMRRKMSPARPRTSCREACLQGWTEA


How the values were obtained:
[1] = biological target: T1, human Type 1 mutCALR on Ba/F3 cells …; assay: cell-based or functional assay
[2] = biological target: T2, human mutCALR on BaF3 cells stably …; assay: flow cytometry, BaF3 MPL-mutCALR cells
Method: On the day of the assay, cells were washed and resuspended in assay buffer. Approximately 200,000 cells/well were added to 96-well plates and stained with the indicated concentration of antibodies for 30 minutes on ice. Cells were then washed and stained with goat anti-human secondary conjugated to R-phycoerythrin (R-PE) (Jackson Immuno Research Laboratories) for 30 minutes on ice. The cells were then washed and analyzed by flow cytometry.

[3] = biological target: MBP protein (UniProt P0AEX9 27-392 = MBP); assay: SPR (Biacore 8K), antibody captured on anti-human IgG (Fc), MBP injected
Method: Experiment 1: Recombinant MBP-mutCALR Type 1 fusion protein was custom made at Cepter (cepterbiopartners.com). Data for the interaction of antibodies with recombinant MBP-mutCALR Type 1 fusion protein were collected at 25° C. on a Biacore 8K instrument (Cytiva, Marlborough, Mass.), and all reagents were obtained from Cytiva unless otherwise specified. The experiments were conducted using Tris-buffered saline (pH 7.2), 0.005% Surfactant P20, 1 mM CaCl₂) as running buffer. To prepare the capture surfaces, anti-human IgG (Fc) antibodies (Product #29234600) was amine-coupled onto a CM4 chip (Product #BR100534) under standard conditions using an Amine Coupling Kit (Product #BR100050). […] The kinetics parameters were obtained by applying 1:1 binding model to fit the data from multiple-cycle injection experiments using Biacore Insight Evaluation software.

Row | Binder | IC50, inhibition of pSTAT5 [1] | MPL-mutCALR AUC [2] | EC50 [2] | binding result [3]
1 | anti-mutCALR antibody clone 48 (antibody, human IgG1, lambda, V domains shown, human IgG1) VH: EVQLVQSGAEVKKPGSSVKVSCKASGGTFSSYAISWVRQAPGQGLEWMGGIIPIFGTANYAQKFQGRVTITADESTSTAYMELSSLRSEDTAVYYCASSPLRGSGWYWHYYYGMDVWGQGTTVTVSS VL: SYVLTQPPSVSVAPGKTARITCGGNNIGSKSVHWYQQKPGQAPVLVIYQDRKRPSGIPERFSGSNSGNTATLTISGTQAMDEADYYCQAWDSSTAVFGGGTKLTVLG | 2.6 µg/mL | 30300 |  | 
2 | anti-mutCALR antibody clone 49 (antibody, human IgG1, lambda, V domains shown, human IgG1) VH: EVQLVQSGAEVKKPGSSVKVSCKASGGTFSSYAISWVRQAPGQGLEWMGGIIPIFGTANYAQKFQGRVTITADESTSTAYMELSSLRSEDTAVYYCASSPLRGSGWYWHYYYGMDVWGQGTTVTVSS VL: SYELTQPPSVSVAPGKTARITCGGNNIRAKHVHWYQQKPGQSPVLVIYQDSKRPSGIPERFSGSNSGSTATLTISRVEAGDEADYYCQVWDSSTVVFGGGTKLTVLG | 9.3 µg/mL | 36400 | 0.89 µg/mL | 
3 | anti-mutCALR antibody clone 45 (antibody, human IgG1, lambda, V domains shown, human IgG1) VH: EVQLVQSGAEVKKPGSSVKVSCKASGGTFSSYAISWVRQAPGQGLEWMGGIIPIFGTANYAQKFQGRVTITADESTSTAYMELSSLRSEDTAVYYCASSPLRGSGWYWHYYYGMDVWGQGTTVTVSS VL: SYVLTQPLSVSVAPGQTARITCGGNNIGRKSVHWYQQKPGQAPVLVIYRDSNRPSGIPERFSGSNSGNTATLTISRAQAGDEADYYCQVWDSSTVVFGGGTKLTVLG | 13 µg/mL | 29800 |  | 
4 | anti-mutCALR antibody clone 50 (antibody, human IgG1, lambda, V domains shown, human IgG1) VH: QMQLVQSGAEVKKPGSSVKVSCKASGGTFSSYAISWVRQAPGQGLEWMGGIIPIFGTANYAQKFQGRVTITADESTSTAYMELSSLRSEDTAVYYCASSPLRGSGWYWHYYYGMDVWGQGTTVTVSS VL: SYVLTQPPSVSVAPGKTARITCGGNNIGTKSVHWYQQKPGQSPVLVIYQDRKRPSGIPERFSGSNSGNTATLTISGTQAMDEADYYCQVWDSSTEVFGGGTKLTVLG | 28 µg/mL | 36700 | 0.8 µg/mL | 
5 | anti-mutCALR antibody clone 43 (antibody, human IgG1, lambda, V domains shown, human IgG1) VH: EVQLVQSGAEVKKPGASVKVSCKASGGTFSSYAISWVRQAPGQGLEWMGGIIPIFGTANYAQKFQGRVTITADESTSTAYMELSSLRSEDTAVYYCASSPLRGSGWYWHYYYGMDVWGQGTTVTVSS VL: not shown | 6.9 µg/mL | 27900 |  | 
6 | anti-mutCALR antibody clone 51 (antibody, human IgG1, lambda, V domains shown, human IgG1) VH: EVQLVQSGAEVKKPGSSVKVSCKASGGTFSSYAISWVRQAPGQGLEWMGGIIPIFGTANYAQKFQGRVTITADESTSTAYMELSSLRSEDTAVYYCASSPLRGSGWYWHYYYGMDVWGQGTTVTVSS VL: SYELTQPPSVSVAPGKTARITCGGNKIGTKSVHWYQQKPGQAPVLVIYQDSKRPSGIPERFSGSNSGNTATLTISGTQAMDEADYYCQAWGSSTVVFGGGTKLTVLG | 14 µg/mL | 37300 | 1.15 µg/mL | 
7 | anti-mutCALR antibody clone 34 (antibody, human IgG1, lambda, V domains shown, human IgG1) VH: QVQLVQSGAEVKKPGATVKISCKVSGYSFTDYFIHWVQQAPGKGLAWVGLVDPEDGETIYAEKFQGRVTITADTSTDTAYMELSSLRSEDTAVYYCATPGGILTDPDAFDIWGQGTMVTVSS VL: QSALTQPASVSGSPGQSITISCTGTSSDVGGYNYVSWYQQHPGKAPKLMIYEVSNRPSGVSNRFSGSKSGNTASLTISGLQAEDEADYYCSSYTSSSTYVFGTGTKVTVLG | 0.072 µg/mL | 71900 | 0.02 µg/mL | 
8 | anti-mutCALR antibody clone 37 (antibody, human IgG1, lambda, V domains shown, human IgG1; group 2) VH: QVQLVQSGAEVKKPGATVKISCKVSGYSFTDYFIHWVQQAPGKGLAWVGLVDPEDGETIYAEKFQGRVTITADTSTDTAYMELSSLRSEDTAVYYCATPGGILTDPDAFDIWGQGTMVTVSS VL: QSALTQPASVSGSPGQSITISCTGTSSDVGGYNYVSWYQQHPGKAPKLMIYDVSNRPSGVSNRFSGSKSGNTASLTISGLQAEDEADYYCSSYTSSSTFYVFGTGTKVTVLG |  |  |  | no binding (tested: 250 nM)
9 | anti-mutCALR antibody clone 35 (antibody, human IgG1, lambda, V domains shown, human IgG1; group 2) VH: QVQLVQSGAEVKKPGATVKISCKVSGYSFTDYFIHWVQQAPGKGLAWVGLVDPEDGETIYAERFQGRVTITADTSTDTAYMELSSLRSEDTAVYYCATPGGILTDPDAFDIWGQGTMVTVSS VL: QSALTQPASVSGSPGQSITISCTGTSSDVGGYNYVSWYQQHPGKAPKLMIYEVSNRPSGVSNRFSGSKSGNTASLTISGLQAEDEADYYCSSYTSSSTPYVFGTGTKVTVLG |  |  |  | no binding (tested: 250 nM)
10 | anti-mutCALR antibody clone 36 (antibody, human IgG1, lambda, V domains shown, human IgG1; group 2) VH: QVQLVQSGAEVKKPGATVKISCKVSGYSFTDYFIHWVQQAPGKGLAWVGLVDPEDGETIYAEKFQGRVTITADTSTDTAYMELSSLRSEDTAVYYCATPGGILTDPDAFDIWGQGTMVTVSS VL: QSALTQPRSVSGSPGQSVTISCAGTGSDVGGYNYVSWYQHHPGKAPKLMIYDVNKRPSGVPDRFSGSKSGNTASLTISGLQAEDEADYYCSSYTSSSTFYVFGTGTKVTVLG |  |  |  | no binding (tested: 250 nM)
11 | anti-mutCALR antibody clone 4 (antibody, human IgG1, lambda, V domains shown) VH: EVQLVQSGAEVKKPGASVKVSCKVSGYTLTELSMQWVRQAPGKGLEWMGGFDPDDGETMYAEKFQGRLTVTEDTSTDTVYMELRSLTSEDTALYFCATSPGYDFFDYWGQGTLVTVSS VL: SYVLTQPPSVSVAPGQTARITCGGNNIGSKSVHWYQQKPGQAPVLVVYDDSDRPSGIPERFSGSNSGNTATLTINRVEAGDEADYYCQVWDSSNDLLIFGGGTKLTVLG |  |  |  | no binding (tested: 250 nM)
12 | anti-mutCALR antibody clone 1 (antibody, human IgG1, lambda, V domains shown, human IgG1; group 1) VH: EVQLVQSGAEVKKPGASVKVSCKVSGYTLTELSMQWVRQAPGKGLEWMGGFDPDDGETMYAEKFQGRLTVTEDTSTDTVYMELRSLTSEDTALYFCATSPGYDFFDYWGQGTLVTVSS VL: SYVLTQPPSVSVAPGKTARITCGGNYIGSKSVHWYQQKPGQAPVLVVYDDGDRPSGIPARFSGSNSGNTATLTISRVEAGDEADYYCQVWDSISDHVVFGGGTKLTVLG |  |  |  | no binding (tested: 250 nM)
13 | anti-mutCALR antibody clone 7 (antibody, human IgG1, lambda, V domains shown, human IgG1; group 1) VH: EVQLVQSGAEVKKPGASVKVSCKVSGYTLTELSMQWVRQAPGKGLEWMGGFDPDDGETMYAEKFQGRLTVTEDTSTDTVYMELRSLTSEDTALYFCATSPGYDFFDYWGQGTLVTVSS VL: SYVLTQPPSVSVAPGQTASITCVGTNFGSKNVHWYQQRPGQAPVLVVYDDSDRPSGIPERFSGSNSGNTATLTINRVEAGDEADYYCQVWDSSNDLLIFGGGTKLTVLG |  |  |  | no binding (tested: 250 nM)
14 | anti-mutCALR antibody clone 2 (antibody, human IgG1, lambda, V domains shown, human IgG1; group 1) VH: EVQLVQSGAEVKKPGASVKVSCKVSGYTLTELSMQWVRQAPGKGLEWMGGFDPDDGETMYAEKFQGRLTVTEDTSTDTVYMELRSLTSEDTALYFCATSPGYDFFDYWGQGTLVTVSS VL: SYELTQPPSVSVAPGKTARITCGGDNIGSKSVHWYQQKPGQAPVLVVYDDSDRPSGIPERFSGSNSGNTATLTISRVEAGDEADYYCQVWDSSIDHLIFGGGTKVTVLG |  |  |  | no binding (tested: 250 nM)
15 | anti-mutCALR antibody clone 5 (antibody, human IgG1, lambda, V domains shown, human IgG1; group 1) VH: EVQLVQSGAEVKKPGASVKVSCKVSGYTLTELSMQWVRQAPGKGLEWMGGFDPDDGETMYAEKFQGRLTVTEDTSTDTVYMELRSLTSEDTALYFCATSPGYDFFDYWGQGTLVTVSS VL: SYVLTQPPSVSVAPGQTASITCVGTNFGSKNVHWYQQRPGQAPVLVVYDDSDRPSGIPERFSGSNSGNTATLTISRVEAGDEADYYCQVWDSSSDHLIFGGGTKLTVLG |  |  |  | no binding (tested: 250 nM)
16 | anti-mutCALR antibody clone 3 (antibody, human IgG1, lambda, V domains shown, human IgG1; group 1) VH: EVQLVQSGAEVKKPGASVKVSCKVSGYTLTELSMQWVRQAPGKGLEWMGGFDPDDGETMYAERFQGRLTVTEDTSTDTVYMELRSLTSEDTALYFCATSPGYDFFDYWGQGTLVTVSS VL: SYVLTQPPSVSVAPGQTARITCGGNNIGSKSVHWYQQKPGQAPVLVVYDDSDRPSGIPERFSGSNSGNTATLTINRVEAGDEADYYCQVWDSSNDLLIFGGGTKLTVLG |  |  |  | no binding (tested: 250 nM)
